How the values were obtained:
Format in all cases: cell-based, mouse
[1] = tested on: splenic γδ T cells; assay: γδ T cell / CD8+ T cell culture with recombinant IL-38; conditions: 100 ng/mL daily, day 5, cytometric bead array
Procedure: γδ T cells and CD8+ T cells were isolated from murine spleens by fluorescence-activated cell sorting (FACS) and co-cultured at a ratio of 1:10. The cells were cultured in T-cell medium Roswell Park Memorial Institute (RPMI) 1640 with 5 mM glutamine, 100 U/mL penicillin, 100 µg/mL streptomycin, 10% heat-inactivated fetal calf serum (FCS), 1% non-essential and essential amino acids, 1% sodium pyruvate and 1% 4-(2-hydroxyethyl)-1-piperazineethanesulfonic acid (HEPES) followed by activation with mouse T-cell activator CD3/CD28 Dynabeads (Thermo Fisher Scientific), 10 ng/mL of recombinant murine (rm) IL-23 and rm IL-1β (both from Bio-Techne). Cells were supplemented with 10 ng/mL rm IL-2 (PrepoTech) at days 0, 2 and 5 and daily with 100 ng/mL rm IL-38 (AdipoGen) and 50 μM β-mercaptoethanol. Cells were cultured for up to 5 days. At the endpoint, supernatants were collected for cytokine determination and cell proliferation was analyzed by flow cytometry.
To measure the cytokines in PyMT tumors and cell culture supernatants, Cytometric Bead Array Flex Sets (BD Biosciences) were used for murine IL-17A and IFN-γ. The samples were acquired via FACS and analyzed with FlowJo Software V.10 (Tree Star).

[2] = tested on: γδ T cells; assay: Xcl1 production by activated γδ T cells (ELISA); conditions: 100 ng/mL, 24 hours
Procedure: γδ T cells isolated from murine spleen were cultured in T-cell medium, activated with mouse T-cell activator CD3/CD28 Dynabeads (Thermo Fisher Scientific), except for the negative control, and supplemented with 10 ng/mL rm IL-2 (PrepoTech), 100 ng/mL rm IL-38 (AdipoGen) and […] β-mercaptoethanol. Supernatants were collected 24 hours after seeding for the determination of Xcl1 levels.
Xcl1 levels were determined from supernatants collected from γδ T-cell cultures using Mouse Xcl1/Lymphotactin DuoSet ELISA Kit (R&D Systems) according to the manufacturer’s instructions.

[3] = tested on: cDC1; assay: cDC1 migration, Boyden chamber assay; conditions: supernatants of γδ T cells pretreated with IL-38, 2 hours
Procedure: Boyden chamber assays were performed using a 96 well-plate with 4.26 mm transwell inserts with 5.0 µm pore polycarbonate membrane (Corning). Briefly, 1.4×10^4 DC-enriched murine splenocytes (EasySep Mouse Pan-DC Enrichment Kit II, STEMCELL Technologies) were suspended in serum-free RPMI 1640 medium and added to transwell inserts. Supernatants collected after 24 hours of γδ T cells stimulation (described above) were pre-incubated with either 15 µg/mL IgG isotype control (R&D Systems) or 15 µg/mL anti-Xcl1 (R&D Systems) and added to the bottom compartment. Cells were harvested 2 hours later and migrated and non-migrated cells were analyzed by FACS. The percentage of migrated cDC1 was determined by the ratio of migrated/non-migrated cells.

B1: recombinant IL-38: recombinant murine IL-38 (AdipoGen) (protein)
chain: MCSLPMARYYIIKDAHQKALYTRNGQLLLGDPDSDNYSPEKVCILPNRGLDRSKVPIFLGMQGGSCCLACVKTREGPLLQLEDVNIEDLYKGGEQTTRFTFFQRSLGSAFRLEAAACPGWFLCGPAEPQQPVQLTKESEPSTHTEFYFEMSR
[1]
  IFN-γ secretion in γδ T cell / CD8+ T cell co-culture: limited the secretion of IFN-γ
  IL-17 production by splenic γδ T cells: effectively suppressed IL-17 production
[2]
  Xcl1 levels on γδ TCR-dependent activation: suppressed
[3]
  cDC1 migration towards γδ T-cell supernatants: reduced

— publication PMC11367332, “Neutralizing IL-38 activates γδ T cell-dependent antitumor immunity and sensitizes for chemotherapy” (Journal for Immunotherapy of Cancer, 2024)
